Reference: publication PMC5225433

Molecular target: EMILIN1 gC1q domain, wild type (recombinant)
Experiment: SDS-PAGE without boiling; purified gC1q (WT or mutant), incubated or not with NE at 37 °C, Laemmli buffer added, loaded on 4-20% gels without boiling to keep the trimer, Coomassie staining; trimer to monomers

stoichiometry N: 3
Substance: EMILIN1 gC1q domain, wild type (recombinant) (domain or fragment)
